Measured values: publication PMC7699480

Columns and labels:
[1] = biological target: nimotuzumab-SpyTag (human (hG1 in the plasmid's name)); experiment: electrophoresis on a bioanalyzer after covalent ligation; nimotuzumab-SpyTag (10 µM) ligated with ∆N-SpyCatcher-DFO (20 µM), 1:1 SpyTag:SpyCatcher; molecular weight of the whole conjugate
IgG-SpyTag = experiment: electrophoresis on a bioanalyzer after covalent ligation; time course at 1:1 molar ratio; IgG-SpyTag 10 µM; ∆N-SpyCatcher-DFO kept at RT or heated for 1 h beforehand; reaction stopped by 10-fold dilution and storage at −80 °C; read-out is the share of heavy chain converted
[2] = biological target: control-IgG-SpyTag (human (hG1 in the plasmid's name)); experiment: electrophoresis on a bioanalyzer after covalent ligation; ∆N-SpyCatcher-DFO reacted with IgG-SpyTag at molar ratios 0:1, 1:4, 1:2, 1:1 and 2:1; 1 h, PBS, room temperature; products analysed under reducing conditions; read-out is the share of heavy chain shifted from ~64 kDa to ~81 kDa
[3] = biological target: nimotuzumab-SpyTag (human (hG1 in the plasmid's name)); experiment: as above

Sequence of nimotuzumab-SpyTag (human (hG1 in the plasmid's name)) (heavy, as listed by the source, chain 1 of 2): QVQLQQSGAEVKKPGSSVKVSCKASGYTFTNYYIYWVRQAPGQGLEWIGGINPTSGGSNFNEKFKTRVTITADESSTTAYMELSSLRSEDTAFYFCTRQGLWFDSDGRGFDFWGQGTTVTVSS
Sequence of nimotuzumab-SpyTag (human (hG1 in the plasmid's name)) (light, as listed by the source, chain 2 of 2): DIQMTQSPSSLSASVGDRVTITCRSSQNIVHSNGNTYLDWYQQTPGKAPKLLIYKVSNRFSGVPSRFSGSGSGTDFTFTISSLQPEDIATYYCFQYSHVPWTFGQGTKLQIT

∆N-SpyCatcher-DFO (designed binder)
stoichiometry N [1]: 2 | percent of heavy chain converted (1 min) (IgG-SpyTag): 35% | percent of heavy chain converted (15 min) (IgG-SpyTag): 94% | percent of heavy chain converted (stopped reaction) (IgG-SpyTag): 13% | percent of heavy chain conjugated (SpyCatcher:SpyTag 1:1) [2]: 99% | percent of heavy chain conjugated (SpyCatcher:SpyTag 1:2) [2]: 50% | percent of heavy chain conjugated (SpyCatcher:SpyTag 1:4) [2]: 25% | percent of heavy chain conjugated (SpyCatcher:SpyTag 1:1) [3]: 99% | percent of heavy chain conjugated (SpyCatcher:SpyTag 1:2) [3]: 50% | percent of heavy chain conjugated (SpyCatcher:SpyTag 1:4) [3]: 25%
